Biological target: VEE capsid protein (Venezuelan equine encephalitis virus, UniProt P09592 P09592:1-275)
Assay: EMSA
Conditions: label: biotin

Sequence of VEE capsid protein (P09592 1-275, one chain of several): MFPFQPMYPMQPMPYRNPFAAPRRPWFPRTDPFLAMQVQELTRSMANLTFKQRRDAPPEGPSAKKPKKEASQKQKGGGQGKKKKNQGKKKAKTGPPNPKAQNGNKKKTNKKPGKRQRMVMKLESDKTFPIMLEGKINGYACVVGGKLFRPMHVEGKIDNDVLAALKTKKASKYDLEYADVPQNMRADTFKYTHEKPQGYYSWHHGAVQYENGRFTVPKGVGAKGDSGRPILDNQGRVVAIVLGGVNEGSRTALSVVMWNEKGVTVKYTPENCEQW

Row | Binder | binding result
1 | GGUUGCGCCCACACGCAAACACCGCCCUUCGACAUGAGGCCCGGC (ssRNA) [KLG_M_45] | binds
2 | GGGAGCUCAGAAUAAACGCUCAAGGCCCUUGCGCCCACACGCAAGC (ssRNA) [KLG_5_46] | binds

— patent publication US20060172925, “Thio-siRNA aptamers” (Board Of Regents, The University Of Texas System, published 2006)
